These results are taken from article PMC10786891, “Massively parallel profiling of RNA-targeting CRISPR-Cas13d”.

To fix the notation:
B1: target 3 G3U,U7C (mixed)
RNA 1: CACCCGUGCAAAAUUGCAGGGGUCUAAAACGACCUGAAUAUUUCAGAUCAAA
RNA 2: GGGAAUGGAUCCACAUCUACGAAUUCGUUUUUGAUCUGAAAUAUCCAGUUCUGCAGAUCGGAAGAGCACACGU
B2: target 3 insC 3' of 9,insG 3' of 8 (mixed)
RNA 1: B1 RNA 1
RNA 2: GGGAAUGGAUCCACAUCUACGAAUUCGUUUUUGAUCUGAAAUACUGUCAGGUCUGCAGAUCGGAAGAGCACACGU
B3: target 3 G4C,A12C (mixed)
RNA 1: B1 RNA 1
RNA 2: B1 RNA 2 with A40C, C45U, G48C, U49G
B4: target 3 insA 3' of 7,insG 3' of 7 (mixed)
RNA 1: B1 RNA 1
RNA 2: B2 RNA 2 with C44U, G46A, U47G
B5: target 3 insC 3' of 8,insG 3' of 6 (mixed)
RNA 1: B1 RNA 1
RNA 2: B2 RNA 2 with C44U, U45C, G46U, U47C, C48G
B6: target 3 insA 3' of 22,insU 3' of 11 (mixed)
RNA 1: B1 RNA 1
RNA 2: GGGAAUGGAUCCACAUCUACGAAUUCGUUUAUUGAUCUGAAAUUAUUCAGGUCUGCAGAUCGGAAGAGCACACGU
B7: target 3 U2A,U22G (mixed)
RNA 1: B1 RNA 1
RNA 2: B1 RNA 2 with U30G, C45U, U49G, U50A
B8: target 3 insA 3' of 21,insU 3' of 4 (mixed)
RNA 1: B1 RNA 1
RNA 2: B6 RNA 2 with A31U, U32A, U44A, A45U, U47C, C48A, A49G, G50U
B9: target 3 complement block 4-9 (mixed)
RNA 1: B1 RNA 1
RNA 2: B1 RNA 2 with A43U, U44A, C45A, C46G, A47U, G48C, U49G
B10: target 3 insA 3' of 14,insG 3' of 5 (mixed)
RNA 1: B1 RNA 1
RNA 2: B2 RNA 2 with U42A, A43U, C44A, G46U, U47C, C48A, A49G
B11: target 3 insU 3' of 16,insU 3' of 4 (mixed)
RNA 1: B1 RNA 1
RNA 2: GGGAAUGGAUCCACAUCUACGAAUUCGUUUUUGAUCUUGAAAUAUUCAGUGUCUGCAGAUCGGAAGAGCACACGU
B12: target 3 insC 3' of 22,insU 3' of 3 (mixed)
RNA 1: B1 RNA 1
RNA 2: B6 RNA 2 with A31C, U44A, A45U, U47C, C48A, A49G, G51U
B13: target 3 insA 3' of 7 (mixed)
RNA 1: B1 RNA 1
RNA 2: GGGAAUGGAUCCACAUCUACGAAUUCGUUUUUGAUCUGAAAUAUUACAGGUCUGCAGAUCGGAAGAGCACACGU
B14: target 3 G3A,A5G (mixed)
RNA 1: B1 RNA 1
RNA 2: B1 RNA 2 with C45U, A47G, U49A
B15: target 3 complement block 5-8 (mixed)
RNA 1: B1 RNA 1
RNA 2: B1 RNA 2 with U44A, C45A, C46G, A47U, U49G
B16: target 3 U2C,G14A (mixed)
RNA 1: B1 RNA 1
RNA 2: B1 RNA 2 with G38A, C45U, U49G, U50C
B17: target 3 U8C (mixed)
RNA 1: B1 RNA 1
RNA 2: B1 RNA 2 with U44C, C45U, U49G
B18: target 3 A5C,U22A (mixed)
RNA 1: B1 RNA 1
RNA 2: B1 RNA 2 with U30A, C45U, A47C, U49G
B19: target 3 insU 3' of 4,insU 3' of 1 (mixed)
RNA 1: B1 RNA 1
RNA 2: B2 RNA 2 with C44U, G46C, U47A, C48G, A49U, G51U, U52C, C53U
B20: target 3 insG 3' of 7,insA 3' of 7 (mixed)
RNA 1: B1 RNA 1
RNA 2: B2 RNA 2 with C44U, U47A
B21: target 3 insC 3' of 5,insA 3' of 4 (mixed)
RNA 1: B1 RNA 1
RNA 2: B2 RNA 2 with C44U, G46C, U47A, A49G, G50A
B22: target 3 C1G,C6U (mixed)
RNA 1: B1 RNA 1
RNA 2: B1 RNA 2 with C45U, C46U, U49G, C51G
B23: target 3 insU 3' of 4,insG 3' of 1 (mixed)
RNA 1: B1 RNA 1
RNA 2: B2 RNA 2 with C44U, G46C, U47A, C48G, A49U, G51U, U52C, C53G
B24: target 3 insA 3' of 21 (mixed)
RNA 1: B1 RNA 1
RNA 2: GGGAAUGGAUCCACAUCUACGAAUUCGUUUUAUGAUCUGAAAUAUUCAGGUCUGCAGAUCGGAAGAGCACACGU
B25: target 3 G3C,U7A (mixed)
RNA 1: B1 RNA 1
RNA 2: B1 RNA 2 with C45A, U49C
B26: target 3 insG 3' of 8,insA 3' of 7 (mixed)
RNA 1: B1 RNA 1
RNA 2: B2 RNA 2 with C44U, U45G, G46U, U47A
B27: target 3 insG 3' of 6,insA 3' of 4 (mixed)
RNA 1: B1 RNA 1
RNA 2: B2 RNA 2 with C44U, G46C, U47G, C48A, A49G, G50A
B28: target 3 insA 3' of 22,insC 3' of 5 (mixed)
RNA 1: B1 RNA 1
RNA 2: B6 RNA 2 with U44A, A45U, U47C, C48A, A49C
B29: target 1 G5C,G15U (mixed)
RNA 1: CACCCGUGCAAAAAUGCAGGGGUCUAAAACUGAGCGGAUAACCUCUCUAUGG
RNA 2: GGGAAUGGAUCCACAUCUACGAAUUCGUACCAUAGAUAGGUUAUCCCCUCACCGAGAUCGGAAGAGCACACGU
B30: target 1 C6G,C22A (mixed)
RNA 1: B29 RNA 1
RNA 2: B29 RNA 2 with C30A, U37G, C46G, C47G
B31: target 1 C6A,U11G (mixed)
RNA 1: B29 RNA 1
RNA 2: B29 RNA 2 with U37G, U41G, C46A, C47G

Numbering of substitutions follows the chain as printed. Names and notes keep the numbering of the source.

The target in this data set is T1, EsCas13d, nuclease-dead (Eubacterium siraeum, UniProt B0MS50, R295A;H300A;R849A;H854A).
T1 sequence: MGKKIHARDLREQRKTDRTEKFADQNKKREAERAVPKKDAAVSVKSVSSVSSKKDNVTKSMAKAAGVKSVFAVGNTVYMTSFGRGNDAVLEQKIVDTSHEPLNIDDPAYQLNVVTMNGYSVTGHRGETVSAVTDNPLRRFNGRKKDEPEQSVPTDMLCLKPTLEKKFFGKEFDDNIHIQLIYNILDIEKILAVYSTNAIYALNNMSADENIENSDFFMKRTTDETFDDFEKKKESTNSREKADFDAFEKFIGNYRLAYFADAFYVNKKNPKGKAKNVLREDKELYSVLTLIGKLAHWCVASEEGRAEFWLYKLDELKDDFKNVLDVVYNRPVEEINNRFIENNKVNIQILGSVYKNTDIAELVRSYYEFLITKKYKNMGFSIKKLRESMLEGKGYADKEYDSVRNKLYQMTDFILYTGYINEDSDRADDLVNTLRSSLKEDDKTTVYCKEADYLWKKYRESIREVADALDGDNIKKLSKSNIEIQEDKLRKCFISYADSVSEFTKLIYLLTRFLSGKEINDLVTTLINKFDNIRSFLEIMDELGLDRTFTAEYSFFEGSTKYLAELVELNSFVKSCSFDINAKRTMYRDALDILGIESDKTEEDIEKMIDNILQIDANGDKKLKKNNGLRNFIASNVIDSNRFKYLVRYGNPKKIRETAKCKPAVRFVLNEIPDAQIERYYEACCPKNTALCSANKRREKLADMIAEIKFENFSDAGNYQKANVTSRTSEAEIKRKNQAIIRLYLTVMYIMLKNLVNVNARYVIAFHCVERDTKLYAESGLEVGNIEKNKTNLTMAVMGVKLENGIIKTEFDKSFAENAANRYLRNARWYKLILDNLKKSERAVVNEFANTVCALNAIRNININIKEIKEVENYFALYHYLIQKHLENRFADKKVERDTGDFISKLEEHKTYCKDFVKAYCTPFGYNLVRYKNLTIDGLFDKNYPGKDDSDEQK
The data set can be described thus: crRNA (strand 1, pre-loaded); Mg2+; 40 mM Tris-HCl pH 7.5, 150 mM NaCl, 6 mM MgCl2, 1 mM DTT, 0.1% Tween-20, 0.2 mg/ml BSA; 25 C; 10 min per concentration, then washed. To be noted: tags: His6-TwinStrep-SUMO cleaved; N-terminal SNAP kept (SNAP-Surface 488); label: 3' end held by stalled T7 RNA polymerase.
Molecule B1 had a dissociation constant (Kd) of 86 ± 36 nM.

In turn, B2 returned a Kd of 82.5 ± 12.5 nM. In the case of B3 it was 95 ± 30 nM; in that of B4, 30.4 ± 3.7 nM.

In turn, B5 came in with a dissociation constant Kd of 79.5 ± 20.5 nM.

In turn, B6 showed a Kd of 72.5 ± 15.5 nM. The result for B7 reads 65.5 ± 11.5 nM; that for B8, 11.9 ± 2.1 nM; that for B9, 67.5 ± 18 nM. In the case of B10 it was 105 ± 31 nM.

B11 showed a Kd of 37 ± 7 nM. Molecule B12 returned a Kd of 58 ± 10 nM. In the case of B13 it was 44 ± 8.5 nM; in that of B14, 42.5 ± 6 nM.

Consider B15, for which the Kd amounted to 60.5 ± 6 nM. In the case of B16 it was roughly 64.5 nM; in that of B17, 30.4 ± 2.25 nM; in that of B18, 60.5 ± 10.5 nM. For the molecule B19, the dissociation constant (Kd) came to 37 ± 7 nM. This Kd lies about 1.6-fold lower than the previous one. Molecule B20 came in with a Kd of 39.5 ± 5 nM. The result for B21 reads 9.8 ± 0.9 nM.

Consider B22, for which the Kd came out at 22.1 ± 2.55 nM.

B23 gave a Kd of 43 ± 11.5 nM. This Kd lies about 1.9-fold higher than the previous one. Consider B24, for which the Kd was 33.5 ± 4.5 nM. In the case of B25 it was 32.9 ± 3.6 nM; in that of B26, 42 ± 6 nM. The result for B27 reads 12.3 ± 1.1 nM. In the case of B28, the equilibrium dissociation constant (Kd) came to 24.9 ± 3.35 nM. This Kd lies about 2-fold higher than the previous one.

Take B29: the affinity, expressed as Kd, was 28.6 ± 2.4 nM. B30 yielded a Kd of 14.7 ± 1 nM. In turn, B31 returned a Kd of 10.8 ± 0.4 nM.

The term Kd denotes the constant that tells how readily two partners part at equilibrium. Low values mean higher affinity, high ones lower affinity.
